# Test results taken from US20200164038A1, “MODIFIED NUCLEOSIDE, NUCLEOTIDE, AND NUCLEIC ACID COMPOSITIONS” (ModernaTX, Inc., priority 2011, published 2020).
# Assays:
# [1] = system: Neutrophil and reticulocyte count; test: Non-human primate hematology: neutrophil and reticulocyte count, hemoglobin, hematocrit, red blood cells; type: in vivo, cynomolgus monkey; settings: for Female NHP Neutrophils: Table 39
# Description: (§1) LNP formulations, shown in Table 31 (above), were administered to non-human primates (NHP) (cynomolgus monkey) (n=2) as intravenous injection (IV). The NHP were administered a single modified mRNA IV dose of 0.5 mg/kg, 0.05 mg/kg or 0.005 mg/kg of G-CSF or EPO in a dose volume of 0.5 mL/kg. The NHPs were bled before dosing with the modified mRNA LNP formulations to determine protein expression in the serum and a baseline complete blood count. After administration with the G-CSF modified mRNA formulation the NHP were bled at 8, 24, 48 and 72 hours to determined protein expression. After administration with the EPO modified mRNA formulation the NHP were bled at 8, 24, 48, 72 hours and 7 days to determined protein expression.
# (§2) Samples collected from the NHPs after they were administered with G-CSF or EPO modified mRNA formulations were analyzed by ELISA to determine protein expression. Neutrophil and reticulocyte count was also determined pre-dose, 24 hours, 3 days, 7 days, 14 days and 18 days after administration of the modified G-CSF or EPO formulation.
# [2] = Non-human primate in vivo study for G-CSF and EPO, serum protein by ELISA; parameters: species or system cynomolgus monkey
# Description: (§3) Formulations, listed in Table 31, were characterized by particle size, zeta potential, and encapsulation.
# as §1, §2
# [3] = LNP formulations in mice, serum G-CSF or EPO by ELISA; type: in vivo; settings: mice IV; for time out to which protein expression was detectable: LNP
# Description: as §3
# LNP formulations, shown in Table 31 (above), were administered to mice (n=4) intravenously (IV) at a single modified mRNA dose 0.05 mg/kg or 0.005 mg/kg. There was also 3 control groups of mice (n=4) that were untreated. The mice were bled at 2 hours, 8 hours, 24 hours, 48 hours and 72 hours after they were administered with G-CSF or EPO modified mRNA formulations to determine the protein expression. Protein expression of G-CSF and EPO were determined using ELISA.
# [4] = Female NHP, 0.5 mg/kg, 24 hours
molecule,measurement,setting,value
"G-CSF: human G-CSF mRNA, SEQ ID NO: 6, polyA about 160 nt, Cap1, fully modified with 5-methylcytosine and pseudouridine (nucleic acid, listed as Homo sapiens, Cap1; polyA; 5-methylcytosine, pseudouridine) GGGAAAUAAGAGAGAAAAGAAGAGUAAGAAGAAAUAUAAGAGCCACCAUGGCCGGUCCCGCGACCCAAAGCCCCAUGAAACUUAUGGCCCUGCAGUUGCUGCUUUGGCACUCGGCCCUCUGGACAGUCCAAGAAGCGACUCCUCUCGGACCUGCCUCAUCGUUGCCGCAGUCAUUCCUUUUGAAGUGUCUGGAGCAGGUGCGAAAGAUUCAGGGCGAUGGAGCCGCACUCCAAGAGAAGCUCUGCGCGACAUACAAACUUUGCCAUCCCGAGGAGCUCGUACUGCUCGGGCACAGCUUGGGGAUUCCCUGGGCUCCUCUCUCGUCCUGUCCGUCGCAGGCUUUGCAGUUGGCAGGGUGCCUUUCCCAGCUCCACUCCGGUUUGUUCUUGUAUCAGGGACUGCUGCAAGCCCUUGAGGGAAUCUCGCCAGAAUUGGGCCCGACGCUGGACACGUUGCAGCUCGACGUGGCGGAUUUCGCAACAACCAUCUGGCAGCAGAUGGAGGAACUGGGGAUGGCACCCGCGCUGCAGCCCACGCAGGGGGCAAUGCCGGCCUUUGCGUCCGCGUUUCAGCGCAGGGCGGGUGGAGUCCUCGUAGCGAGCCACCUUCAAUCAUUUUUGGAAGUCUCGUACCGGGUGCUGAGACAUCUUGCGCAGCCGUGAAGCGCUGCCUUCUGCGGGGCUUGCCUUCUGGCCAUGCCCUUCUUCUCUCCCUUGCACCUGUACCUCUUGGUCUUUGAAUAAAGCCUGAGUAGGAAG",Hematocrit (HCT),"[1]; Female NHP, 0.005 mg/kg, 14/18 days",0.42 L/L
same,Hematocrit (HCT),"[1]; Female NHP, 0.005 mg/kg, 24 hours",0.42 L/L
same,Hematocrit (HCT),"[1]; Female NHP, 0.005 mg/kg, 3 days",0.41 L/L
same,Hematocrit (HCT),"[1]; Female NHP, 0.005 mg/kg, 7 days",0.42 L/L
same,Hematocrit (HCT),"[1]; Female NHP, 0.005 mg/kg, Pre-dose",0.42 L/L
same,Hematocrit (HCT),"[1]; Female NHP, 0.05 mg/kg, 14/18 days",0.4 L/L
same,Hematocrit (HCT),"[1]; Female NHP, 0.05 mg/kg, 24 hours",0.4 L/L
same,Hematocrit (HCT),"[1]; Female NHP, 0.05 mg/kg, 3 days",0.39 L/L
same,Hematocrit (HCT),"[1]; Female NHP, 0.05 mg/kg, 7 days",0.4 L/L
same,Hematocrit (HCT),"[1]; Female NHP, 0.05 mg/kg, Pre-dose",0.44 L/L
same,Hematocrit (HCT),"[1]; Female NHP, 0.5 mg/kg, 14/18 days",0.37 L/L
same,Hematocrit (HCT),[1]; [4],0.38 L/L
same,Red Blood Cells (RBC),[1]; [4],4.95 10^12/L
same,Hematocrit (HCT),"[1]; Female NHP, 0.5 mg/kg, 3 days",0.38 L/L
same,Hematocrit (HCT),"[1]; Female NHP, 0.5 mg/kg, 7 days",0.38 L/L
same,Hematocrit (HCT),"[1]; Female NHP, 0.5 mg/kg, Pre-dose",0.43 L/L
same,Hematocrit (HCT),"[1]; Male NHP, 0.005 mg/kg, 14/18 days",0.41 L/L
same,Hematocrit (HCT),"[1]; Male NHP, 0.005 mg/kg, 24 hours",0.4 L/L
same,Hematocrit (HCT),"[1]; Male NHP, 0.005 mg/kg, 3 days",0.4 L/L
same,Hematocrit (HCT),"[1]; Male NHP, 0.005 mg/kg, 7 days",0.39 L/L
same,Hematocrit (HCT),"[1]; Male NHP, 0.005 mg/kg, Pre-dose",0.42 L/L
same,Hematocrit (HCT),"[1]; Male NHP, 0.05 mg/kg, 14/18 days",0.44 L/L
same,Hematocrit (HCT),"[1]; Male NHP, 0.05 mg/kg, 24 hours",0.39 L/L
same,Hematocrit (HCT),"[1]; Male NHP, 0.05 mg/kg, 3 days",0.41 L/L
same,Hematocrit (HCT),"[1]; Male NHP, 0.05 mg/kg, 7 days",0.42 L/L
same,Hematocrit (HCT),"[1]; Male NHP, 0.05 mg/kg, Pre-dose",0.44 L/L
same,Hematocrit (HCT),"[1]; Male NHP, 0.5 mg/kg, 14/18 days",0.34 L/L
same,Hematocrit (HCT),"[1]; Male NHP, 0.5 mg/kg, 24 hours",0.37 L/L
same,Hematocrit (HCT),"[1]; Male NHP, 0.5 mg/kg, 3 days",0.39 L/L
same,Red Blood Cells (RBC),"[1]; Male NHP, 0.5 mg/kg, 3 days",1.91 10^12/L
same,Hematocrit (HCT),"[1]; Male NHP, 0.5 mg/kg, 7 days",0.39 L/L
same,Hematocrit (HCT),"[1]; Male NHP, 0.5 mg/kg, Pre-dose",0.46 L/L
same,neutrophils relative to pre-dose levels,"[1]; NHP IV LNP, all G-CSF groups",increase in neutrophils
same,Female NHP Neutrophils,"[1]; 0.005 mg/kg IV LNP, 14/18 days",0.057 10^12/L
same,Female NHP Neutrophils,"[1]; 0.005 mg/kg IV LNP, 24 hours",0.07 10^12/L
same,Female NHP Neutrophils,"[1]; 0.005 mg/kg IV LNP, 3 days",0 .054 10^12/L
same,Female NHP Neutrophils,"[1]; 0.005 mg/kg IV LNP, 7 days",0.066 10^12/L
same,Female NHP Neutrophils,"[1]; 0.005 mg/kg IV LNP, Pre-dose",0.06 10^12/L
same,Female NHP Neutrophils,"[1]; 0.05 mg/kg IV LNP, 14/18 days",0.06 10^12/L
same,Female NHP Neutrophils,"[1]; 0.05 mg/kg IV LNP, 24 hours",0.046 10^12/L
same,Female NHP Neutrophils,"[1]; 0.05 mg/kg IV LNP, 3 days",0.061 10^12/L
same,Female NHP Neutrophils,"[1]; 0.05 mg/kg IV LNP, 7 days",0.094 10^12/L
same,Female NHP Neutrophils,"[1]; 0.05 mg/kg IV LNP, Pre-dose",0.049 10^12/L
same,Female NHP Neutrophils,"[1]; 0.5 mg/kg IV LNP, 14/18 days",0.071 10^12/L
same,Female NHP Neutrophils,"[1]; 0.5 mg/kg IV LNP, 24 hours",0.046 10^12/L
same,Female NHP Neutrophils,"[1]; 0.5 mg/kg IV LNP, 3 days",0.017 10^12/L
same,Female NHP Neutrophils,"[1]; 0.5 mg/kg IV LNP, 7 days",0.021 10^12/L
same,Female NHP Neutrophils,"[1]; 0.5 mg/kg IV LNP, Pre-dose",0.055 10^12/L
same,Male NHP Serum G-CSF Concentration,"[2]; 0.005 mg/kg IV LNP, 24 hours",<39 pg/mL
same,Male NHP Serum G-CSF Concentration,"[2]; 0.005 mg/kg IV LNP, 48 hours",<39 pg/mL
same,Male NHP Serum G-CSF Concentration,"[2]; 0.005 mg/kg IV LNP, 72 hours",<39 pg/mL
same,Male NHP Serum G-CSF Concentration,"[2]; 0.005 mg/kg IV LNP, Pre-bleed",<39 pg/mL
same,Female NHP Serum G-CSF Concentration,"[2]; 0.05 mg/kg IV LNP, 8 hours","3,289 pg/ml"
same,Male NHP Serum G-CSF Concentration,"[2]; 0.05 mg/kg IV LNP, 8 hours","1,722 pg/ml"
same,Female NHP Serum G-CSF Concentration,"[2]; 0.05 mg/kg IV LNP, 24 hours",722 pg/mL
same,Male NHP Serum G-CSF Concentration,"[2]; 0.05 mg/kg IV LNP, 24 hours",307 pg/mL
same,Male NHP Serum G-CSF Concentration,"[2]; 0.05 mg/kg IV LNP, 48 hours",<39 pg/mL
same,Male NHP Serum G-CSF Concentration,"[2]; 0.05 mg/kg IV LNP, 72 hours",<39 pg/mL
same,Male NHP Serum G-CSF Concentration,"[2]; 0.05 mg/kg IV LNP, Pre-bleed",<39 pg/mL
same,Male NHP Serum G-CSF Concentration,"[2]; 0.5 mg/kg IV LNP, Pre-bleed, limit of detection 39 pg/ml",<39 pg/mL
same,time beyond which protein expression was not detected,"[2]; NHP IV, G-CSF LNP",≤ 72 h
same,G-CSF Serum Concentration,"[3]; LNP NPA-030-2, 0.005 mg/kg, 2 hours","3,447.8 pg/ml"
same,G-CSF Serum Concentration,"[3]; LNP NPA-030-2, 0.005 mg/kg, 8 hours","11,454.0 pg/ml"
same,G-CSF Serum Concentration,"[3]; LNP NPA-030-2, 0.005 mg/kg, 24 hours","4,960.2 pg/ml"
same,G-CSF Serum Concentration,"[3]; LNP NPA-030-2, 0.005 mg/kg, 48 hours",686.4 pg/mL
same,G-CSF Serum Concentration,"[3]; LNP NPA-030-2, 0.05 mg/kg, 2 hours","20,951.4 pg/ml"
same,G-CSF Serum Concentration,"[3]; LNP NPA-030-2, 0.05 mg/kg, 8 hours","20,012.8 pg/ml"
same,G-CSF Serum Concentration,"[3]; LNP NPA-030-2, 0.05 mg/kg, 24 hours","19,356.2 pg/ml"
same,G-CSF Serum Concentration,"[3]; LNP NPA-030-2, 0.05 mg/kg, 48 hours","1,963.0 pg/ml"
same,G-CSF Serum Concentration,"[3]; LNP NPA-030-2, 0.05 mg/kg, 72 hours",47.3 pg/mL
same,time out to which protein expression was detectable,[3]; 0.005 mg/kg,≥ 48 h
same,time out to which protein expression was detectable,[3]; 0.05 mg/kg,≥ 72 h
